# Test results from publication PMC11805909, “Structural basis of inhibition of human NaV1.8 by the tarantula venom peptide Protoxin-I” (Nature Communications, 2025).
# B1: Protoxin-I (peptide)
# peptide: ECRYWLGGCSAGQTCCKHLVCSRRHGWCVWDGTFS
# notes: modelled from the NMR ensemble PDB 2M9L; printed residue numbers (R3, W5, L6, S22, R23, W27, V29, W30, D31, G32, F34) count on the peptide; Disulfide-rich (ICK framework); also called ProTx-I; source: bought: Smartox Biotechnology
# Target: T1, human NaV1.8 α-subunit (human, UniProt Q9Y5Y9 1-1956, M1713V, N-linked glycosylation modelled at Asn 312, 819, 1312, 1328 and 1336; further sites N284 and N288)
# T1 construct: a TEV protease site stands between the N-terminal tags and the channel; No TEV cleavage is described in the purification, so the N-terminal tags were probably still on the protein on the grids; VSDI was not resolved in the maps; also called hNaV1.8; apo-hNaV1.8; source: HEK293 (FreeStyle 293-F), transiently co-transfected with β4; not shown: FLAG, N-terminal, kept
# Test: cryo-EM structure; 45 µM ProTx-I incubated 30 min on ice with purified hNaV1.8 in GDN micelles (150 mM NaCl, 25 mM HEPES pH 7.5, 0.006% GDN); excess peptide removed on a 100 kDa MWCO filter; monolayer graphene grids
# Conditions: both partners purified
binder,measurement,value
B1,binding result,binds
